B1: HAdV-F41 capsid protein IX (natural protein, human adenovirus F41 (strain Tak), UniProt P32539 1-133, looked up)
chain: MSGSMEGNAVSFKGGVFSPYLTTRLPAWAGVRQNVMGSNVDGRPVAPANSATLTYATVGSSVDTAAAAAASAAASTARGMAADFGLYNQLAASRSLREEDALSVVLTRMEELSQQLQDLFAKVALLNPPANAS
B2: HAdV-F41 hexon protein (natural protein, human adenovirus F41 (strain Tak))
chain: MATPSMMPQWSYMHIAGQDASEYLSPGLVQFARATDTYFSLGNKFRNPTVAPTHDVTTDRSQRLTLRFVPVDREDTAYSYKVRFTLAVGDNRVLDMASTYFDIRGVLDRGPSFKPYSGTAYNSLAPKTAPNPCEWKDNNKIKVRGQAPFIGTNINKDNGIQIGTDTTNQPIYADKTYQPEPQVGQTQWNSEVGAAQKVAGRVLKDTTPMLPCYGSYAKPTNEKGGQASLITNGTDQTLTSDVNLQFFALPSTPNEPKAVLYAENVSIEAPDTHLVYKPDVAQGTISSADLLTQQAAPNRPNYIGFRDNFIGLMYYNSTGNMGVLAGQASQLNAVVDLQDRNTELSYQLMLDALGDRSRYFSMWNQAVDSYDPDVRIIENHGVEDELPNYCFPLGGSAATDTYSGIKANGQTWTADDNYADRGAEIESGNIFAMEINLAANLWRSFLYSNVALYLPDSYKITPDNITLPENKNTYAYMNGRVAVPSALDTYVNIGARWSPDPMDNVNPFNHHRNAGLRYRSMLLGNGRYVPFHIQVPQKFFAIKNLLLLPGSYTYEWNFRKDVNMILQSSLGNDLRVDGASVRFDSINLYANFFPMAHNTASTLEAMLRNDTNDQSFNDYLCAANMLYPIPSNATSVPISIPSRNWAAFRGWSFTRLKTKETPSLGSGFDPYFTYSGSVPYLDGTFYLNHTFKKVSIMFDSSVSWPGNDRLLTPNEFEIKRTVDGEGYNVAQCNMTKDWFLIQMLSHYNIGYQGFYVPESYKDRMYSFFRNFQPMSRQVVNTTTYKEYQNVTLPFQHNNSGFVGYMGPTMREGQAYPANYPYPLIGQTAVPSLTQKKFLCDRTMWRIPFSSNFMSMGALTDLGQNMLYANSAHALDMTFEVDPMDEPTLLYVLFEVFDVVRIHQPHRGVIEAVYLRTPFSAGNATT

Holding throughout (assay): cryo-EM structure
Data set [1] deals with HAdV-F41 penton base protein, virion-bound (human adenovirus F41 (strain Tak)).
Data set [2] deals with B2.
Data set [3] deals with the molecule itself.

Usually stoichiometry N stands for the number of molecules, sites or subunits per partner or assembly. The molecule “HAdV-F41 penton base protein, virion-bound (natural protein)” registered a stoichiometry N in data set [1] of 5.
Turning to B1, the binding result in data set [2] is “binds”. Moreover, in data set [3], the “stoichiometry N” value turned out to be 3.
In the case of B2, the “stoichiometry N” value in data set [3] came to 3.

Source of the values: publication PMC7793593 (Science Advances, 2021).
